Measurements as given in patent publication US20220227850A1 (CRESCENDO BIOLOGICS, published 2022).
Values belong to the binder of their own block, whether it stands above or below them.

Key:
mouse serum albumin = target: T1, mouse serum albumin (mouse, UniProt P07724 25-608); experiment: SPR, Biacore T200, single cycle kinetics, MSA amine coupled to CM5 chip, pH 7.4
T1 construct: also called MSA
Description: (§1) Binding studies with human, cyno and mouse serum albumin in pH 7.4 and pH 6.0 were carried out using single cycle kinetics on a Biacore T200. Serum albumin (HSA, CSA, MSA) were coupled to CM5 chip by amine coupling using the amine reagent coupling kit GE Healthcare BR-1000-50. The surface of the chip was activated according to manufacturer's instructions. Serum albumin (HSA, CSA, MSA) were captured and cross-linked to the sensor chip surface by injecting of serum albumin (HSA, CSA, MSA) in 10 mM sodium acetate, pH 5.0. Following with the injection of 1M Ethanolamine to stabilise the serum albumin on the surface. With this procedure around 300 RU were immobilized.
(§2) For kinetics measurement four-fold serial dilution of the VH single domain antibodies (194D04-2 or 191 E02-2) in either PBST pH 7.4 or PBST pH 6.0 were injected with 120s association and 300s dissociation at the flow rate of 45 μl/min at 25° C. Binding response was corrected by subtracting both the blank flow cell and from buffer run on the same flow cell. The traces were fitted using 1:1 model.

Human Serum Albumin [1] = target: T2, Human Serum Albumin (human, UniProt P02768 25-609); experiment: SPR, Biacore T200, single cycle kinetics, albumin amine coupled to CM5 chip, 25 C, pH 6.0
T2 construct: also called HSA
Description: as §1, §2

Cyno Serum Albumin [2] = target: T3, Cyno Serum Albumin (cyno, UniProt A2V9Z4 25-608); experiment: as above
T3 construct: Serum purified CSA (Abcam ab184894) is named for immunisation; also called CSA; cynomolgus serum albumin
Description: as §1, §2

Human Serum Albumin [3] = target: T2, Human Serum Albumin; experiment: SPR, Biacore T200, single cycle kinetics, albumin amine coupled to CM5 chip, 25 C, pH 7.4
Description: as §1, §2

Cyno Serum Albumin [4] = target: T3, Cyno Serum Albumin; experiment: as above
Description: as §1, §2

binding result (mouse serum albumin): no binding
Kd (Human Serum Albumin [1]): 37 nM
koff (Human Serum Albumin [1]): 0.031 s⁻¹
kon (Human Serum Albumin [1]): 840000 M⁻¹ s⁻¹
Kd (Cyno Serum Albumin [2]): 4.9 nM
koff (Cyno Serum Albumin [2]): 0.0032 s⁻¹
kon (Cyno Serum Albumin [2]): 640000 M⁻¹ s⁻¹
Kd (Human Serum Albumin [3]): 30 nM
koff (Human Serum Albumin [3]): 0.019 s⁻¹
kon (Human Serum Albumin [3]): 620000 M⁻¹ s⁻¹
Kd (Cyno Serum Albumin [4]): 11 nM
koff (Cyno Serum Albumin [4]): 0.0065 s⁻¹
kon (Cyno Serum Albumin [4]): 570000 M⁻¹ s⁻¹
B1: SEQ ID NO. 5 (VH single domain antibody binding HSA) (VHH)
VHH: EVQLLESGGGLVKPGGSLRLSCAASGFTVSSYTMNWVRQAPGKGLEWVSSISSSGRYIYYADSVKGRFTISRDNAKNSLYLQMNSLRAEDTAVYYCARDPRMVGNPHEFDIWGQGTMVTVSS
notes: Human VH single domain antibody (Humabody) from a transgenic mouse, not a camelid VHH; also called Humabody 2; Humabody VH

binding result (mouse serum albumin): no binding
Kd (Human Serum Albumin [1]): 600 nM
koff (Human Serum Albumin [1]): 0.32 s⁻¹
kon (Human Serum Albumin [1]): 530000 M⁻¹ s⁻¹
Kd (Cyno Serum Albumin [2]): 99 nM
koff (Cyno Serum Albumin [2]): 0.0644 s⁻¹
kon (Cyno Serum Albumin [2]): 640000 M⁻¹ s⁻¹
Kd (Human Serum Albumin [3]): 590 nM
koff (Human Serum Albumin [3]): 0.19 s⁻¹
kon (Human Serum Albumin [3]): 330000 M⁻¹ s⁻¹
Kd (Cyno Serum Albumin [4]): 100 nM
koff (Cyno Serum Albumin [4]): 0.041 s⁻¹
kon (Cyno Serum Albumin [4]): 290000 M⁻¹ s⁻¹
B2: SEQ ID NO. 30 (VH single domain antibody binding HSA, variant of SEQ ID NO. 1) (VHH)
VHH: EVQLVESGGGLVKPGGSLRLSCAASGFTFSNYNMNWVRQAPGKGLEWVSSISSAGTHIYYADSVKGRFTISRDNAKNSLYLQMNSLRAEDTAVYYCARDPHSTGWYKDFDYWGQGTLVTVSS
notes: Human VH single domain antibody (Humabody) from a transgenic mouse, not a camelid VHH; also called Humabody VH; variant of Humabody 1
